Values quoted from earlier work, collected in patent US10753947B2, “Methods for screening voltage-gated proteins” (D.E. Shaw Research, LLC, priority 2012, dated 2020).
Residue numbers refer to the chain shown, from its start. Where two headings read alike, the source gives them in different places.

Key:
Kv1.3 = Kv1.3 (Homo sapiens, UniProt P22001); conditions: cited from earlier work
Kv2.1 = molecular target: T1, Kv2.1 (Homo sapiens, UniProt Q14721); conditions: cited from earlier work; for IC50: Table 5, read-out: IC50, channel Kv2.1
T1 sequence (Q14721 1-858): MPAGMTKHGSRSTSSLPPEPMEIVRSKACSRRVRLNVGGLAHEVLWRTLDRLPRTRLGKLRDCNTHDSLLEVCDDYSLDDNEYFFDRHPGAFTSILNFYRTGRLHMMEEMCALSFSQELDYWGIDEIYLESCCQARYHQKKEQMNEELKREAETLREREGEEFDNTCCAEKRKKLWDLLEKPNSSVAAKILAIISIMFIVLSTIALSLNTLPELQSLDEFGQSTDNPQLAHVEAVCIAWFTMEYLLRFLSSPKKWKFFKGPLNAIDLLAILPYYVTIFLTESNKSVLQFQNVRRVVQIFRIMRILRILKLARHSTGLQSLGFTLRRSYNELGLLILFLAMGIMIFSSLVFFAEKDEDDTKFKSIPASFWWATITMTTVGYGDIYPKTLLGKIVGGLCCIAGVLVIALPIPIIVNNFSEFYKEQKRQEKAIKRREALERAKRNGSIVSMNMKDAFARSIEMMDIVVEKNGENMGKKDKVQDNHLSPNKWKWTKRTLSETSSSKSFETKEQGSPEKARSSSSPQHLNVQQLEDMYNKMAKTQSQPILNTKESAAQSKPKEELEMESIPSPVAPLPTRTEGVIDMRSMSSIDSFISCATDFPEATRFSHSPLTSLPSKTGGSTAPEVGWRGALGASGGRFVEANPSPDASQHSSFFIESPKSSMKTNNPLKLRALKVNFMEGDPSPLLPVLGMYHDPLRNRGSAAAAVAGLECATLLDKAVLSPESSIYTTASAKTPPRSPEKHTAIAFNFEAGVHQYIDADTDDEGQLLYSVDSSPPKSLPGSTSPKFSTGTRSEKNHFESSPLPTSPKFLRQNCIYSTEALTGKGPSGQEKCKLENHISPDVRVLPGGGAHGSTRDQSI

[1] = molecular target: T2, Kv2.1 T359S K360G A366D S367A I383M Y384T K386V (Homo sapiens, UniProt Q14721, A366D/I383M/K360G/K386V/S367A/T359S/Y384T); conditions: Table 5; read-out: IC50, channel Kv2.1 T359S K360G A366D S367A I383M Y384T K386V; cited from earlier work
T2 sequence (Q14721 1-858 T359S/K360G/A366D/S367A/I383M/Y384T/K386V): T1 sequence (Q14721 1-858) with T359S, K360G, A366D, S367A, I383M, Y384T, K386V

Chain of Kv1.3 (P22001 whole entry): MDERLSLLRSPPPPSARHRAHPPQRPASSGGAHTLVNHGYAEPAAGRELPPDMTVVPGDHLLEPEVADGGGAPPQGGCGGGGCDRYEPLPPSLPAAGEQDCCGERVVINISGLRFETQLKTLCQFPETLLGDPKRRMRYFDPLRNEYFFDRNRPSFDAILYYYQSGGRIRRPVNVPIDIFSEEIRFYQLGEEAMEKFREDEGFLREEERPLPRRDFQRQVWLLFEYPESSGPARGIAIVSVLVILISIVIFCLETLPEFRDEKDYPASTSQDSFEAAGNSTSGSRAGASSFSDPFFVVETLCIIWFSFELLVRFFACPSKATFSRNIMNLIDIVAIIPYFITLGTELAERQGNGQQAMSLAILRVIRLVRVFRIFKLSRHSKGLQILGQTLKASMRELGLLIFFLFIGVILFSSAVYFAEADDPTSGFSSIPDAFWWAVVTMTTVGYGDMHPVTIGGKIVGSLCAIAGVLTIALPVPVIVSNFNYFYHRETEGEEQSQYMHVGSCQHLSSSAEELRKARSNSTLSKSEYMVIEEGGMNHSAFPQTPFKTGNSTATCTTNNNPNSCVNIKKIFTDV

| Substance | IC50 (Kv1.3; Table 3, read-out: IC50 Values of Kv1.3 ion channel modulating agent) [nM] | IC50 (Kv1.3; Table 5, read-out: IC50, channel Kv1.3) [nM] | Sensitivity of Kv1.3 to the scorpion toxin (Kv1.3; text b541) | IC50 (Kv2.1) [nM] | Sensitivity of Kv2.1 to the scorpion toxin (Kv2.1; text b541) | IC50 [1] [nM] | IC50, channel Kv1.3 (Kv1.3; Table 5, result in words) |
| --- | --- | --- | --- | --- | --- | --- | --- |
| Agitotoxin-2 (GVPINVSCTGSPQCIKPCKDAGMRFGKCMNRKCHCTPK) [AgTx2] | 0.004 | 0.004 | sensitive | > 2000 | insensitive | 0.007 | – |
| Guangxitoxin (EGECGGFWWKCGSGKPACCPKYVCSPKWGLCNFPMP) [GxTx-1E] | – | – | – | 2 | – | ~2 | No effect |
